Changes are numbered by the printed parent chain.
B1: M201-H08 (Fab, V domains shown)
VH: EVQLLESGGGLVQPGGSLRLSCAASGFTFSHYIMMWVRQAPGKGLEWVSGIYSSGGITVYADSVKGRFTISRDNSKNTLYLQMNSLRAEDTAVYYCAYRRTGVPRRDALDNWGQGTMVTVSS
VL: DIQMTQSPSTLSASVGDRVTITCRASQSISSWLAWYQQKPGKAPNLLIYKASTLESGVPSRFSGSGSGTEFTLTISSLQPDDFATYYCQQYNTYWTFGQGTKVEIK
B2: M198-H09 (Fab, V domains shown)
VH: EVQLLESGGGLVQPGGSLRLSCAASGFTFSIYLMIWVRQAPGKGLEWVSYIGPSGGPTEYADSVKGRFTISRDNSKNTLYLQMNSLRAEDTAVYYCAYRRTGIPRRDAFDIWGQGTMVTVSS
VL: B1 VL
B3: M202-A10 (Fab, V domains shown)
VH: B1 VH with Y98F, V103I, A108S, L109F, N111I
VL: B1 VL
B4: M195-E12 (Fab, V domains shown)
VH: B2 VH with I31Y, L33I, I35F, G52S, P57Y, E59H
VL: B1 VL
B5: M196-G12 (Fab, V domains shown)
VH: B2 VH with I31N, L33S, I35D, Y50R, G52Y, P53S, P57G, E59I
VL: B1 VL
B6: M197-G11 (Fab, V domains shown)
VH: B2 VH with I31T, L33A, I35V, Y50S, G52Y, P57I, E59T
VL: B1 VL
B7: M202-C02 (Fab, V domains shown)
VH: B1 VH with T101P, L109F, N111I
VL: B1 VL
B8: M198-A01 (Fab, V domains shown)
VH: B2 VH with I31P, L33T, G44L, L45G, Y50S, G52S, P53S, P57M, E59P
VL: B1 VL
B9: M200-F01 (Fab, V domains shown)
VH: B1 VH with T101M, V103I, D107N, L109F, N111I
VL: B1 VL
B10: M198-C03 (Fab, V domains shown)
VH: B2 VH with I31R, L33S, I35S, Y50G, G52S, P57E, E59S
VL: B1 VL
B11: M199-B01 (Fab, V domains shown)
VH: B1 VH with Y98F, V103I, L109F
VL: B1 VL
B12: M197-C12 (Fab, V domains shown)
VH: B2 VH with I31P, L33D, I35L, G52V, P53S, P57L, E59K
VL: B1 VL
B13: M200-B01 (Fab, V domains shown)
VH: B1 VH with V103I, L109F, N111S
VL: B1 VL
B14: M195-G02 (Fab, V domains shown)
VH: B2 VH with I31P, L33N, I35M, Y50S, G52W, P57T, E59D
VL: B1 VL
B15: M195-A02 (Fab, V domains shown)
VH: B1 VH with H31Q, I33M, Y52S, I57H, V59D, V103I, L109F, N111I
VL: B1 VL
B16: M195-F12 (Fab, V domains shown)
VH: B2 VH with I31H, L33V, I35M, G52V, P57V, E59A
VL: B1 VL
B17: M196-D02 (Fab, V domains shown)
VH: B2 VH with I31V, L33S, I35H, Y50V, P57I, E59L
VL: B1 VL
B18: M202-A08 (Fab, V domains shown)
VH: B1 VH with V103I, R106W, L109F, N111I
VL: B1 VL
B19: M201-A06 (Fab, V domains shown)
VH: B1 VH with V103I, A108V, L109F, N111I
VL: B1 VL
B20: M197-G10 (Fab, V domains shown)
VH: B2 VH with I31V, L33A, I35R, Y50S, G52Y, P57K, E59W
VL: B1 VL
B21: M199-A11 (Fab, V domains shown)
VH: B1 VH with T101R, V103I, L109F, N111I
VL: B1 VL
B22: M202-E03 (Fab, V domains shown)
VH: B1 VH with V103I, L109F, D110E, N111I
VL: B1 VL
B23: M198-A08 (Fab, V domains shown)
VH: EVQLLESGGGLVQPGGSLRLSCAASGFTFSWYMMQWVRQAPGKGLEWVSRISPSGGTTYADSVKGRFTISRDNSKNTLYLQMNSLRAEDTAVYYCAYRRTGIPRRDAFDIWGQGTMVTVSS
VL: B1 VL
B24: M201-F11 (Fab, V domains shown)
VH: B1 VH with T101S, V103I, L109F, N111I
VL: B1 VL
B25: M198-G03 (Fab, V domains shown)
VH: EVQLLESGGGLVQPGGSLRLSCAASGFTFSQYTMVWVRQAPGKGLEWVSWIYSSRANYADSVKGRFTISRDNSKNTLYLQMNSLRAEDTAVYYCAYRRTGIPRRDAFDIWGQGTMVTVSS
VL: B1 VL
B26: M195-A12 (Fab, V domains shown)
VH: B1 VH with H31P, I33M, S53P, I57Y, V103I, L109F, N111I
VL: B1 VL
B27: M9-C08 (Fab, V domains shown)
VH: EVQLLESGGGLVQPGGSLRLSCAASGFTFSHYGMVWVRQAPGKGLEWVSYIVPSGGLTYYADSVKGRFTISRDNSKNTLYLQMNSLRAEDTAVYYCARVDYTGDGLGYWGQGTLVTVSS
VL: DIQMTQSPSSLSASVGDRVTITCRASQSISIYVNWYQQKPGKAPNLLIFAASSLQRGVPSRFSGSGSGADFTLTISSLQPEDFATYYCQQSFSTPLTFGGGTKVEIK
notes: Fab fragment (E. coli TG1); printed HC runs into the start of CH1
B28: M9-C10 (Fab, V domains shown)
VH: EVQLLESGGGLVQPGGSLRLSCAASGFTFSLYPMQWVRQAPGKGLEWVSSIGSSGGMTFYADSVKGRFTISRDNSKNTLYLQMNSLRAEDTAVYYCTREVGAAGFAFDIWGQGTMVTVSS
VL: DIQMTQSPSSLSASVGDRVTITCRASQGISSYLNWYQQKPGNAPNLLIYGASSLQSGVPSRFSGSGSGTDFTLTISSLQPEDFATYYCQESYSTLFTFGPGTTVEIK
notes: as for B27
B29: M9-D08 (Fab, V domains shown)
VH: EVQLLESGGGLVQPGGSLRLSCAASGFTFSWYKMMWVRQAPGKGLEWVSSIYPSGGWTNYADSVKGRFTISRDNSKNTLYLQMNSLRAEDTAVYYCTRGSPWGDDAFDIWGQGTMVTVSS
VL: DIQMTQSPSSLSASVGDRVTLTCRASRTISFYLNWYQQKAGKAPELLIYGGSSLHSGVPSRFSGSGSGTDFSLTISNLQPEDIAVYYCQQSFSSPWTFGQGTKVEIK
notes: as for B27
B30: M9-E04 (Fab, V domains shown)
VH: EVQLLESGGGLVQPGGSLRLSCAASGFTFSEYDMMWVRQAPGKGLEWVSSIGSSGGMTYYADSVKGRFTISRDNSKNTLYLQMNSLRAEDTAVYYCARDQVAAAAIDYWGQGTLVTVSS
VL: DIQMIQSPSSLSASVGDRVTITCRASQSISGYLNWYQQRSGKAPKLLIFAASNLQTGVPSRFSGSGSGTDFTLTINNLQPEDFATYYCQQSHTPPKTFGPGTKVDIK
notes: as for B27
B31: M9-F09 (Fab, V domains shown)
VH: EVQLLESGGGLVQPGGSLRLSCAASGFTFSSYPMGWVRQAPGKGLEWVSRISSSGGMTIYADSVKGRFTISRDNSKNTLYLQMNSLRAEDTAVYYCARDDWNVGMDVWGQGTTVTVSS
VL: DIQMTQSPSSLSASVGDRVTITCRASQSISSYLNWYQQKPGKAPKLLIYAASSLQSGVPSKFSGSGSGTDYTLTISSLQPEDFATYYCQQTYTTPWTFGQGTKVEIK
notes: as for B27
B32: M9-A08 (Fab, V domains shown)
VH: EVQLLESGGGLVQPGGSLRLSCAASGFTFSAYEMWWVRQAPGKGLEWVSYIGSSGGSTSYADSVKGRFTISRDNSKNTLYLQMNSLRAEDTAVYYCTGGNSSSFDAFDIWGQGTMVTVSS
VL: DIQMTQSPSSLSASVGDRVTVTCRASQRISTYLNWYQQKPGKAPKLLISGASSLQSGVPSRFSGSGSGTDFTLTISSLQPDDFATYYCQQSYNTPRTFGQGTKVEIR
notes: as for B27
B33: M9-F08 (Fab, V domains shown)
VH: EVQLLESGGGLVQPGGSLRLSCAASGFTFSPYAMTWVRQAPGKGLEWVSVIYPSGGFTDYADSVKGRFTISRDNSKNTLYLQMNSLRAEDTAMYYCARASGSYLDAFDIWGQGTMVTVSS
VL: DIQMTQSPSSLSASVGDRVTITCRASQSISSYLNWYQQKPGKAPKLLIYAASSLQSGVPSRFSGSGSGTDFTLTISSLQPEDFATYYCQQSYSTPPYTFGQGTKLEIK
notes: Fab fragment (E. coli TG1); printed HC runs into the start of CH1; The LC is printed with an amber codon 'q' (MTqSPS), written here as Q

What follows are binders tested against human plasma kallikrein (human, UniProt P03952 20-390; P03952 391-638) (assay: cell-based or functional assay).
Target sequence in this assay (P03952 20-390, chain 1 of 2): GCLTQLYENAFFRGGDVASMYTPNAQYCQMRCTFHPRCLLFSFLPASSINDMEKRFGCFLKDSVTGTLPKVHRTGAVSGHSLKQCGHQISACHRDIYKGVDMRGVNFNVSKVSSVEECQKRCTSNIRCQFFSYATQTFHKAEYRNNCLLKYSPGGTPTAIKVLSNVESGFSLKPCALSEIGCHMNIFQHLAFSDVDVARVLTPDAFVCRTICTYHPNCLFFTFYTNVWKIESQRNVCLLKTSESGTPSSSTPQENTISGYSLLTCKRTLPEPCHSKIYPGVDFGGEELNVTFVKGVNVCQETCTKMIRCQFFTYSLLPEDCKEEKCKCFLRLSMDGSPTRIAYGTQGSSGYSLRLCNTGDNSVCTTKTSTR
Target sequence in this assay (P03952 391-638, chain 2 of 2): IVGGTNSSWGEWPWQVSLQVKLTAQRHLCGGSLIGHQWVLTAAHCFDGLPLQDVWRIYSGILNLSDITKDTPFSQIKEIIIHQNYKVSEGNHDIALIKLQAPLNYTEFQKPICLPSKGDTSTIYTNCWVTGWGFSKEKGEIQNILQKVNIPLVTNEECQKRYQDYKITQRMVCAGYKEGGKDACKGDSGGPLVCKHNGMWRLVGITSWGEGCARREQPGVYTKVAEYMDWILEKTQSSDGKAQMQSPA

First: B1
Second: B2
The “% inhibition at 10 nM” value of the first is higher: 74.5% for the first, 41.1% for the second.

Going from B3 to B4, the “% inhibition at 10 nM” value rises from 36.3% to 38%.

First: B5
Second: B6
The “% inhibition at 10 nM” value of the first is higher: 51.1% for the first, 19.2% for the second.

Going from B7 to B8, the “% inhibition at 10 nM” value falls from 74.3% to 13.8%.

Going from B9 to B10, the “% inhibition at 10 nM” value rises from 65.1% to 72.4%.

Compared with B11, B12 is higher in “% inhibition at 10 nM” value: 53.4% for the first, 56.4% for the second.

Compared with B13, B14 is higher in “% inhibition at 10 nM” value: 42.6% for the first, 67.5% for the second.

First: B15
Second: B16
The “% inhibition at 10 nM” value of the first is higher: 71.3% for the first, 45.5% for the second.

First: B17
Second: B18
The “% inhibition at 10 nM” value of the first is higher: 66.2% for the first, 52.9% for the second.

Going from B19 to B20, the “% inhibition at 10 nM” value rises from 36.8% to 67.6%.

Going from B21 to B22, the “% inhibition at 10 nM” value falls from 65.4% to 51.4%.

Compared with B23, B24 is lower in “% inhibition at 10 nM” value: 72.3% for the first, 15.7% for the second.

Going from B25 to B26, the “% inhibition at 10 nM” value falls from 53.8% to 51.7%.

The binders below were run against T1, human plasma kallikrein (human, UniProt P03952 20-390; P03952 391-638) (assay: ELISA; signal on coated biotinylated human plasma kallikrein divided by signal on streptavidin; Fab).
T1 construct: two disulfide-linked chains; also called pKal; human pKal
From the text: Abbreviations used: "T/B" is the ELISA signal obtained using of the target (biotinylated plasma kallikrein) divided by the ELISA signal of the "background" (streptavidin); both of which were coated on microtiter plates. "nd" is not determined. The symbol "q" refers to the amber suppressible stop codon (TAG), which is translated as glutamine (Q) in strains of E. coli such as the TG1 cells that were used to express the Fab fragments.
T1 sequence (P03952 20-390, chain 1 of 2): as the sequence (P03952 20-390, chain 1 of 2) above
T1 sequence (P03952 391-638, chain 2 of 2): as the sequence (P03952 391-638, chain 2 of 2) above

First: B27
Second: B28
The “Human pKal ELISA (T/B)” value of the first is higher: 10.9 T/B (target signal / background signal) for the first, 7.8 T/B (target signal / background signal) for the second.

First: B29
Second: B30
The “Human pKal ELISA (T/B)” value of the first is higher: 35.9 T/B (target signal / background signal) for the first, 18.8 T/B (target signal / background signal) for the second.

Compared with B31, B32 is lower in “Human pKal ELISA (T/B)” value: 7 T/B (target signal / background signal) for the first, 5.5 T/B (target signal / background signal) for the second.

B33 was tested, and the “Human pKal ELISA (T/B)” value was 10.9 T/B (target signal / background signal).
